Assay results as given in patent US8703915B2, “Mutant proteins and methods for producing them” (Heptares Therapeutics Limited, priority 2009, dated 2014).

T1: CRF1 (Homo sapiens, UniProt P34998, I163A)
T1 construct: made in house; host or cells: HEK293T cells, transient
T1 sequence (P34998 24-415 I163A): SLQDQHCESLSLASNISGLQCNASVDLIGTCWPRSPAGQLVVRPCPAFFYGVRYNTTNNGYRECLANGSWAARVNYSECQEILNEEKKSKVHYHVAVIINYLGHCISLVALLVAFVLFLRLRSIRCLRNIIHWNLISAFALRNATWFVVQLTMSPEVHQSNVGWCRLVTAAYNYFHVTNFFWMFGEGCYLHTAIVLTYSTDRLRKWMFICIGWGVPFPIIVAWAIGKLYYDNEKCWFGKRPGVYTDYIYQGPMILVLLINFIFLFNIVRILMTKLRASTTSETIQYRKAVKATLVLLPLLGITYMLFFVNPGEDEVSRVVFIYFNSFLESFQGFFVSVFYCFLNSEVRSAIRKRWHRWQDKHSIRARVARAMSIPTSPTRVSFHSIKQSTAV

T2: OX2 receptor (Homo sapiens, UniProt O43614, F28L/I308V/Y91L)
T2 construct: made in house; host or cells: transiently transfected mammalian cells (HEK293T inferred from 'as described for M4')
T2 sequence (O43614 1-444 F28L/Y91L/I308V): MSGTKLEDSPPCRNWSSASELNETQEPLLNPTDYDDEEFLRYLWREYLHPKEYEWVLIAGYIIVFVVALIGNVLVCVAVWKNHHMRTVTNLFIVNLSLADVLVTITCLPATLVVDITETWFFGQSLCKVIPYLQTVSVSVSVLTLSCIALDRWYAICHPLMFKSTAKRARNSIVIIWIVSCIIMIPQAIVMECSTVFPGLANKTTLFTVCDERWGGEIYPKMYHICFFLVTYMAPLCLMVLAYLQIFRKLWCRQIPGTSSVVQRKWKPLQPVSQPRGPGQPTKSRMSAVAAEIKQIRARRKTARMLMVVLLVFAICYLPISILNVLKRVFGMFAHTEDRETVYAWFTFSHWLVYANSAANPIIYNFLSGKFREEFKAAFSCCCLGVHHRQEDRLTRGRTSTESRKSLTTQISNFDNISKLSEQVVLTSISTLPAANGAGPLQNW


How the values were obtained:
CRF1 [1] = molecular target: T1, CRF1; assay: Thermostability of CRF1 bound to antagonist CP-376395, purified in DDM; assay type: physicochemical; details: antagonist CP-376395 bound, versus CRF1 WT
Description: (§1) In order to stabilise CRF1 in the antagonist conformation, a systematic alanine-scan was performed to identify mutations that stabilise receptors bound to the antagonist ligand CP-376395. Mutating I2.58 to alanine (I163A) confers significant stabilisation in CRF1, increasing the thermal stability by 3.9 (±0.5)° C. (FIG. 15).
(§2) CRF1 receptors were transiently expressed in HEK293T cells on 10 cm plates using GeneJuice transfection reagent used according to manufacturers guidelines.
(§3) Cells expressing CRF1 were harvested in PBS approximately 40 hours post-transfection and re-suspended in 950 μl Re-suspension buffer (50 mM Tris-HCl, 150 mM NaCl, 2× Complete EDTA-free Protease inhibitor cocktail (Roche), pH7.5). Cells were incubated with 120 nM CP-376395 and 30 nM [^3H]-CP-376395 at 37° C. for 2 hours before transferring to ice for 5 minutes. The receptors were solubilised by the addition of 1% DDM and incubated at 4° C. for 1 hour with gentle agitation. Insoluble material was removed by centrifugation at 16000×g for 10 minutes at 4° C. The solubilised receptors were partially purified with Ni-NTA agarose (Qiagen). Ni-NTA resin was equilibrated in Equilibration buffer (50 mM Tris-HCl, 150 mM NaCl, 2× Complete EDTA-free Protease inhibitor cocktail (Roche), 0.025% DDM, pH7.5) and 400 μl of a 50:50 resin slurry was added to each sample. Resin slurries were incubated at 4° C. for 1 hour 30 minutes with gentle agitation to bind receptors. Resin slurries were then transferred to a batch column filter plate (Chromabond) and centrifuged at 1000×g for 1 minute, discarding the flow-through. Resin was washed twice with 1 ml of Wash buffer (50 mM Tris-HCl, 150 mM NaCl, 2× Complete EDTA-free Protease inhibitor cocktail (Roche), 0.025% DDM, 20 mM Imidazole, pH7.5) and then eluted in 1 ml of Elution buffer (50 mM Tris-HCl, 150 mM NaCl, 2× Complete EDTA-free Protease inhibitor cocktail (Roche), 0.025% DDM, 100 mM histidine, 30 nM [^3H]-CP-376395, 120 nM CP-376395, pH7.5) by resuspension at 4° C. for 30 minutes. Eluted samples were used directly in the thermostability assay. […]

CRF1 [2] = assay: as above; assay type: physicochemical, human; details: antagonist-bound state (CP-376395), purified in DDM
Description: as §1, §2, §3

OX2 receptor [3] = molecular target: T2, OX2 receptor; assay: Thermostability of OX2 receptor bound to antagonist EMPA; assay type: physicochemical; details: antagonist EMPA bound, compared to WT OX2
Description: (§4) Transiently transfected mammalian cells expressing M4 were harvested about 40 hours post transfection and the receptors were solubilised in 50 mM Tris pH 7.5/250 mM NaCl/1% DDM/EDTA free protease inhibitor mix for 1 hour rotating at 4° C. The solubilised lysate was then cleared by centrifugation at 13000 rpm for 15 minutes at 4° C. The solubilised receptors were then purified on Ni-NTA beads and eluted with 100 mM histidine. The eluted receptor was used in radioligand binding assay. Thermostability of M4 was measured using 25 μL of purified receptor mixed with 95 μL of 12 nM [^3H]-NMS (final concentration of 10 nM). The sample was incubated for 60 min at 4° C., then 30 min at the specified temperature and then 30 min at 4° C. Receptor bound and free radioligand were separated using a 96-well plate gel filtration assay.
(§5) A tandem alanine and leucine scanning mutagenesis strategy was used to identify mutations that enhanced the thermostability of OX2 bound to the small-molecule antagonist EMPA.
(§6) Thermostability assays were preformed on partially purified receptors as described for M4, with the following amendments. Cell lysates were solubilised in 50 mM Tris pH7.4, 150 mM NaCl, 1% DDM supplemented with 1× complete EDTA free protease inhibitor cocktail (Roche). Radioligand binding reactions were set up using 1/10 volume eluted receptor mixed with 20 nM ^3H-EMPA (final concentration) per temperature point.

OX2 receptor [4] = assay: as above; assay type: physicochemical, human; details: bound to antagonist EMPA
Description: as §4, §5, §6

Molecule | increase of thermal stability (CRF1 [1]) | Tm (CRF1 [2]) | increase of Tm (OX2 receptor [3]) | Tm (OX2 receptor [4])
CRF1 I163A: human CRF1 mutant, I2.58 to alanine (I163A) (protein, UniProt P34998 24-415, looked up, variant I163A) Corticotropin-releasing …: SLQDQHCESLSLASNISGLQCNASVDLIGTCWPRSPAGQLVVRPCPAFFYGVRYNTTNNGYRECLANGSWAARVNYSECQEILNEEKKSKVHYHVAVIINYLGHCISLVALLVAFVLFLRLRSIRCLRNIIHWNLISAFALRNATWFVVQLTMSPEVHQSNVGWCRLVTAAYNYFHVTNFFWMFGEGCYLHTAIVLTYSTDRLRKWMFICIGWGVPFPIIVAWAIGKLYYDNEKCWFGKRPGVYTDYIYQGPMILVLLINFIFLFNIVRILMTKLRASTTSETIQYRKAVKATLVLLPLLGITYMLFFVNPGEDEVSRVVFIYFNSFLESFQGFFVSVFYCFLNSEVRSAIRKRWHRWQDKHSIRARVARAMSIPTSPTRVSFHSIKQSTAV | 3.9 (±0.5) ° C. | 30.7 °C |  | 
OX2Y91L (protein, UniProt O43614 1-444, looked up, variant Y91L) Orexin receptor type 2: MSGTKLEDSPPCRNWSSASELNETQEPFLNPTDYDDEEFLRYLWREYLHPKEYEWVLIAGYIIVFVVALIGNVLVCVAVWKNHHMRTVTNLFIVNLSLADVLVTITCLPATLVVDITETWFFGQSLCKVIPYLQTVSVSVSVLTLSCIALDRWYAICHPLMFKSTAKRARNSIVIIWIVSCIIMIPQAIVMECSTVFPGLANKTTLFTVCDERWGGEIYPKMYHICFFLVTYMAPLCLMVLAYLQIFRKLWCRQIPGTSSVVQRKWKPLQPVSQPRGPGQPTKSRMSAVAAEIKQIRARRKTARMLMIVLLVFAICYLPISILNVLKRVFGMFAHTEDRETVYAWFTFSHWLVYANSAANPIIYNFLSGKFREEFKAAFSCCCLGVHHRQEDRLTRGRTSTESRKSLTTQISNFDNISKLSEQVVLTSISTLPAANGAGPLQNW |  |  | 1 °C | 29.69 °C
